Laboratory results reported in patent US6677130.

Target: T1, GST-ATF2 substrate, P15336
T1 chain: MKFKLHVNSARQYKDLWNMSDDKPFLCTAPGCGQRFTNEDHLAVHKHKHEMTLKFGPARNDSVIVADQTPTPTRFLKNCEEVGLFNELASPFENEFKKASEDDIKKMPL

B1: epitope-tagged p38-2 (3xHA-p38-2) (protein)
chain: MSGPRAGFYRQELNKTVWEVPQRLQGLRPVGSGAYGSVCSAYDARLRQKVAVKKLSRPFQSLIHARRTYRELRLLKHLKHENVIGLLDVFTPATSLEDFSEVYLVTTLMGADLNNIVKCQALSDEHVQFLVYQLLRGLKYIHSAGIIHRDLKPSNVAVNEDCELRILDFGLARQADEEMTGYVATRWYRAPEIMLNWMHYNQTVDIWSVGCIMAELLQGKALFPGSDYIDQLKRIMEVVGTPSPEVLAKISSEHARTYIQSLPPMPQKDLSSIFRGANPLAIDLLGRMLVLDSDQRVSAAEALAHAYFSQYHDPEDEPEAEPYDEGVEAKERTLEEWKELTYQEVLSFKPPEPPKPPGSLEIEQ
phosphorylation of GST-ATF2 by immunoprecipitated HA-p38-2 ([gamma-32P]ATP, SDS-PAGE, autoradiography): the inducible phosphorylation of ATF2 depends on a kinase cascade comprised of MEK6 and p38-2
